The values below come from patent US12104178B2, “DHFR tunable protein regulation” (Obsidian Therapeutics, Inc., priority 2017, dated 2024).

One assay concerns HCT-116 cells. The assay can be described thus: DD regulated luciferase, western blot and luciferase activity. Format: cell-based, human. To be noted: 1 μM Shield-1 or 10 μM Trimethoprim, 24 h. An excerpt: DD regulated luciferase can be used to track cells in vivo e.g. T cells. Firefly luciferase or Renilla luciferase may be utilized as the payload. HCT-116 cells were stably transduced with the constitutive (OT-RLuc-001) or DD regulated constructs (OT-RLuc-002, OT-RLuc-003, OT-RLuc-004, OT-RLuc-005 and OT-RLuc-006). […] Blots were also probed with anti-GAPDH antibody to ensure uniform protein loading in all samples. […] (FIG. 59A).
Ligand dependent activity of Renilla and firefly luciferase constructs was measured using coelentrazine and luciferin substrates respectively. […] Luciferase activity was measured as luminescence reading using a luminometer and the values were compared to control samples consisting of lysis buffer and substrate.
Background: In western blotting, separated proteins are transferred to a membrane and probed.

The subject of the next assay is HCT116 cells. The experiment in a line: Combination mutation analysis, TMP dose response MFI. Format: cell-based, human. An excerpt:
Mutations identified by random mutagenesis were combined with mutations identified by site directed mutagenesis.

B1: OT-RLuc-006: DD regulated Renilla luciferase (protein)
chain: MTSKVYDPEQRKRMITGPQWWARCKQMNVLDSFINYYDSEKHAENAVIFLHGNAASSYLWRHVVPHIEPVARCIIPDLIGMGKSGKSGNGSYRLLDHYKYLTAWFELLNLPKKIIFVGHDWGACLAFHYSYEHQDKIKAIVHAESVVDVIESWDEWPDIEEDIALIKSEEGEKMVLENNFFVETMLPSKIMRKLEPEEFAAYLEPFKEKGEVRRPTLSWPREIPLVKGGKPDVVQIVRNYNAYLRASDDLPKMFIESDPGFFSNAIVEGAKKFPNTEFVKVKGLHFSQEDAPDEMGKYIKSFVERVLKNEQSGISLIAALAVDYVIGMENAMPWNLPADLAWFKRNTLNKPVIMGRHTWESIGRPLPGRKNIILSSQPGTDDRVTWVKSVDEAIAACGDVPEIMVIGGGRVIEQFLPKAQKLYLTHIDAEVEGDTHFPDYEPDDWESVFSEFHDADAQNSHSYCFEILERR
Regarding B1, the “Luciferase stabilization by western blot (FIG. 59A)” value (shortened to “Luciferase stabilization”) in the assay with HCT-116 cells is “modest stabilization of Renilla luciferase in the presence of their corresponding ligand”.

B2: OT-RLuc-004: DD regulated Renilla luciferase (protein)
chain: MISLIAALAVDYVIGMENAMPWNLPADLAWFKRNTLNKPVIMGRHTWESIGRPLPGRKNIILSSQPGTDDRVTWVKSVDEAIAACGDVPEIMVIGGGRVIEQFLPKAQKLYLTHIDAEVEGDTHFPDYEPDDWESVFSEFHDADAQNSHSYCFEILERRSGTSKVYDPEQRKRMITGPQWWARCKQMNVLDSFINYYDSEKHAENAVIFLHGNAASSYLWRHVVPHIEPVARCIIPDLIGMGKSGKSGNGSYRLLDHYKYLTAWFELLNLPKKIIFVGHDWGACLAFHYSYEHQDKIKAIVHAESVVDVIESWDEWPDIEEDIALIKSEEGEKMVLENNFFVETMLPSKIMRKLEPEEFAAYLEPFKEKGEVRRPTLSWPREIPLVKGGKPDVVQIVRNYNAYLRASDDLPKMFIESDPGFFSNAIVEGAKKFPNTEFVKVKGLHFSQEDAPDEMGKYIKSFVERVLKNEQ
In the case of B2, the “Luciferase stabilization” value in the assay with HCT-116 cells is recorded as “modest stabilization of Renilla luciferase in the presence of their corresponding ligand”.

B3: OT-RLuc-005: DD regulated Renilla luciferase (protein)
chain: MTSKVYDPEQRKRMITGPQWWARCKQMNVLDSFINYYDSEKHAENAVIFLHGNAASSYLWRHVVPHIEPVARCIIPDLIGMGKSGKSGNGSYRLLDHYKYLTAWFELLNLPKKIIFVGHDWGACLAFHYSYEHQDKIKAIVHAESVVDVIESWDEWPDIEEDIALIKSEEGEKMVLENNFFVETMLPSKIMRKLEPEEFAAYLEPFKEKGEVRRPTLSWPREIPLVKGGKPDVVQIVRNYNAYLRASDDLPKMFIESDPGFFSNAIVEGAKKFPNTEFVKVKGLHFSQEDAPDEMGKYIKSFVERVLKNEQSGGVQVETISPGDGRTFPKRGQTCVVHYTGMLGDGKKVDSSRDRNKPFKFMLGKQEVIRGWEEGVAQMSVGQGAKLTISPDYAYGATGHPGIIPPHATLVFDVELLELE
Regarding B3, in the assay with HCT-116 cells, the “Luciferase stabilization” value is given as “modest stabilization of Renilla luciferase in the presence of their corresponding ligand”.

B4: OT-DHFRC-029: combination mutant hDHFR (I17V, Y122I) (protein, UniProt P00374 1-187, looked up, variant I17V Y122I)
Dihydrofolate reductase: MVGSLNCIVAVSQNMGVGKNGDLPWPPLRNEFRYFQRMTTTSSVEGKQNLVIMGKKTWFSIPEKNRPLKGRINLVLSRELKEPPQGAHFLSRSLDDALKLTEQPELANKVDMVWIVGGSSVIKEAMNHPGHLKLFVTRIMQDFESDTFFPEIDLEKYKLLPEYPGVLSDVQEEKGIKYKFEVYEKND
With B4, the MFI in the assay with HCT116 cells (DMSO, 48 h) is given as 3041; in the assay with HCT116 cells (TMP dose (log) −4, 48 h), 158659; with HCT116 cells (TMP dose (log) −4.48, 48 h), 115339; in the assay with HCT116 cells (TMP dose (log) −4.95, 48 h) it was 66170; with HCT116 cells (TMP dose (log) −5.43, 48 h), 23454; with HCT116 cells (TMP dose (log) −5.91, 48 h) it was 6966. Further, the MFI in the assay on HCT116 cells (TMP dose (log) −6.39, 48 h) came to 4355; in the assay with HCT116 cells (TMP dose (log) −6.86, 48 h) it was 3439. Besides, the Stabilization ratio in the assay with HCT116 cells (TMP dose (log) −4) was determined as 52.17; with HCT116 cells (TMP dose (log) −4.48), 37.93; with HCT116 cells (TMP dose (log) −4.95) it was 21.76; in the assay with HCT116 cells (TMP dose (log) −5.43), 7.71; in the assay on HCT116 cells (TMP dose (log) −5.91), 2.29; in the assay on HCT116 cells (TMP dose (log) −6.39), 1.43. Further, the Stabilization ratio in the assay with HCT116 cells (TMP dose (log) −6.86) amounted to 1.13.

B5: OT-hDHFRC-032: combination mutant hDHFR (Y122I, H131R, E144G) (protein, UniProt P00374 1-187, looked up, variant Y122I H131R E144G)
Dihydrofolate reductase: MVGSLNCIVAVSQNMGIGKNGDLPWPPLRNEFRYFQRMTTTSSVEGKQNLVIMGKKTWFSIPEKNRPLKGRINLVLSRELKEPPQGAHFLSRSLDDALKLTEQPELANKVDMVWIVGGSSVIKEAMNHPGRLKLFVTRIMQDFGSDTFFPEIDLEKYKLLPEYPGVLSDVQEEKGIKYKFEVYEKND
Regarding B5, the MFI with HCT116 cells (DMSO, 48 h) amounted to 2627; in the assay with HCT116 cells (TMP dose (log) −4, 48 h) it was 49891; with HCT116 cells (TMP dose (log) −4.48, 48 h), 12247; in the assay on HCT116 cells (TMP dose (log) −4.95, 48 h) it was 5092; in the assay on HCT116 cells (TMP dose (log) −5.43, 48 h), 3246; with HCT116 cells (TMP dose (log) −5.91, 48 h) it was 2826. The MFI with HCT116 cells (TMP dose (log) −6.39, 48 h) came to 2694; in the assay on HCT116 cells (TMP dose (log) −6.86, 48 h) it was 2704. In addition, the Stabilization ratio in the assay on HCT116 cells (TMP dose (log) −4) is 18.99; in the assay on HCT116 cells (TMP dose (log) −4.48) it was 4.66; with HCT116 cells (TMP dose (log) −4.95) it was 1.94; with HCT116 cells (TMP dose (log) −5.43), 1.24; with HCT116 cells (TMP dose (log) −5.91), 1.08; with HCT116 cells (TMP dose (log) −6.39), 1.03. The Stabilization ratio in the assay with HCT116 cells (TMP dose (log) −6.86) was found to be 1.03.

B6: OT-hDHFRC-031: combination mutant hDHFR (N127Y, Y122I) (protein, UniProt P00374 1-187, looked up, variant N127Y Y122I)
Dihydrofolate reductase: MVGSLNCIVAVSQNMGIGKNGDLPWPPLRNEFRYFQRMTTTSSVEGKQNLVIMGKKTWFSIPEKNRPLKGRINLVLSRELKEPPQGAHFLSRSLDDALKLTEQPELANKVDMVWIVGGSSVIKEAMYHPGHLKLFVTRIMQDFESDTFFPEIDLEKYKLLPEYPGVLSDVQEEKGIKYKFEVYEKND
As to B6, the MFI in the assay with HCT116 cells (DMSO, 48 h) is 2565; in the assay on HCT116 cells (TMP dose (log) −4, 48 h), 145144; with HCT116 cells (TMP dose (log) −4.48, 48 h), 98805; in the assay with HCT116 cells (TMP dose (log) −4.95, 48 h) it was 53282; with HCT116 cells (TMP dose (log) −5.43, 48 h), 15743; in the assay on HCT116 cells (TMP dose (log) −5.91, 48 h), 5576. For the same molecule, the MFI is listed as 3345 in the assay with HCT116 cells (TMP dose (log) −6.39, 48 h) and 2922 with HCT116 cells (TMP dose (log) −6.86, 48 h). Moreover, the Stabilization ratio is 56.59 in the assay with HCT116 cells (TMP dose (log) −4); 38.52 with HCT116 cells (TMP dose (log) −4.48); 20.77 in the assay on HCT116 cells (TMP dose (log) −4.95); 6.14 in the assay on HCT116 cells (TMP dose (log) −5.43); 2.17 in the assay on HCT116 cells (TMP dose (log) −5.91); 1.30 with HCT116 cells (TMP dose (log) −6.39). Moreover, the Stabilization ratio with HCT116 cells (TMP dose (log) −6.86) is reported as 1.14.

B7: OT-hDHFRC-030: combination mutant hDHFR (Y122I, M140I) (protein, UniProt P00374 1-187, looked up, variant Y122I M140I)
Dihydrofolate reductase: MVGSLNCIVAVSQNMGIGKNGDLPWPPLRNEFRYFQRMTTTSSVEGKQNLVIMGKKTWFSIPEKNRPLKGRINLVLSRELKEPPQGAHFLSRSLDDALKLTEQPELANKVDMVWIVGGSSVIKEAMNHPGHLKLFVTRIIQDFESDTFFPEIDLEKYKLLPEYPGVLSDVQEEKGIKYKFEVYEKND
Take B7: the MFI with HCT116 cells (DMSO, 48 h) amounted to 2539; with HCT116 cells (TMP dose (log) −4, 48 h) it was 66732; in the assay with HCT116 cells (TMP dose (log) −4.48, 48 h), 20890; in the assay with HCT116 cells (TMP dose (log) −4.95, 48 h) it was 6641; with HCT116 cells (TMP dose (log) −5.43, 48 h), 3494; in the assay on HCT116 cells (TMP dose (log) −5.91, 48 h) it was 2766. The MFI was determined as 2618 with HCT116 cells (TMP dose (log) −6.39, 48 h) and 2643 in the assay with HCT116 cells (TMP dose (log) −6.86, 48 h). Besides, the Stabilization ratio in the assay with HCT116 cells (TMP dose (log) −4) came out at 26.28; with HCT116 cells (TMP dose (log) −4.48), 8.23; in the assay on HCT116 cells (TMP dose (log) −4.95), 2.62; in the assay on HCT116 cells (TMP dose (log) −5.43), 1.38; in the assay with HCT116 cells (TMP dose (log) −5.91), 1.09; with HCT116 cells (TMP dose (log) −6.39) it was 1.03. The Stabilization ratio with HCT116 cells (TMP dose (log) −6.86) came to 1.04.
